Assay results reported in patent publication US20190241648A1 (STATEN BIOTECHNOLOGY B V, published 2019).
Ends that are not written are not given here.

What was measured:
Assay in all cases: cyclic peptide substitution array
ApoC3 peptide W65C = biological target: T1, ApoC3 peptide W65C (human, not fully specified; cyclic (thioether))
T1 peptide: DKFSEFCDLDPEV
Method in brief: (§1)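 Peptide microarrays incubated with antibody samples, then stained with goat anti-human IgG (Fc) DyLight680 and anti-HA DyLight800 control antibodies, scanned at intensity 7/7 (red/green). Secondary-only pre-stain checked background binding; framing HA peptides served as quality control; substitution effects read as changes in spot intensity.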

ApoC3 peptide D68C = biological target: T2, ApoC3 peptide D68C (human, cyclic (thioether))
T2 peptide: DKFSEFWDLCPEV
Method in brief: as §1

ApoC3 peptide E70C = biological target: T3, ApoC3 peptide E70C (human, cyclic (thioether))
T3 peptide: DKFSEFWDLDPCV
Method in brief: as §1

ApoC3 peptide W65D = biological target: T4, ApoC3 peptide W65D (human, not fully specified; cyclic (thioether))
T4 peptide: DKFSEFDDLDPEV
Method in brief: as §1

ApoC3 peptide F61E = biological target: T5, ApoC3 peptide F61E (human, cyclic (thioether))
T5 peptide: DKESEFWDLDPEV
Method in brief: as §1

ApoC3 peptide D68F = biological target: T6, ApoC3 peptide D68F (human, cyclic (thioether))
T6 peptide: DKFSEFWDLFPEV
Method in brief: as §1

ApoC3 peptide F64H = biological target: T7, ApoC3 peptide F64H (human, thioether (positions not given here); not fully specified (bridges); also: cyclic (thioether), positions not given here)
T7 peptide: DKFSEHWDLDPEV
Method in brief: as §1

ApoC3 peptide P69H = biological target: T8, ApoC3 peptide P69H (human, not fully specified; cyclic (thioether))
T8 peptide: DKFSEFWDLDHEV
Method in brief: as §1

ApoC3 peptide P69I = biological target: T9, ApoC3 peptide P69I (human, not fully specified; cyclic (thioether))
T9 peptide: DKFSEFWDLDIEV
Method in brief: as §1

ApoC3 peptide K60L = biological target: T10, ApoC3 peptide K60L (human, cyclic (thioether))
T10 peptide: DLFSEFWDLDPEV
Method in brief: as §1

ApoC3 peptide F61L = biological target: T11, ApoC3 peptide F61L (human, cyclic (thioether))
T11 peptide: DKLSEFWDLDPEV
Method in brief: as §1

ApoC3 peptide L67M = biological target: T12, ApoC3 peptide L67M (human, thioether (positions not given here); not fully specified (bridges); also: thioether between a C-terminal Cys side chain and a modified N-terminus, the Cys is not in the chain)
T12 peptide: DKFSEFWDMDPEV
Method in brief: as §1

ApoC3 peptide P69M = biological target: T13, ApoC3 peptide P69M (human, not fully specified; cyclic (thioether))
T13 peptide: DKFSEFWDLDMEV
Method in brief: as §1

ApoC3 peptide E70N = biological target: T14, ApoC3 peptide E70N (human, cyclic (thioether))
T14 peptide: DKFSEFWDLDPNV
Method in brief: as §1

ApoC3 peptide D59P = biological target: T15, ApoC3 peptide D59P (human, thioether (positions not given here); not fully specified (C-terminus, bridges); also: cyclised via thioether between a C-terminal Cys and a modified N-terminus, the Cys and the N-terminal …)
T15 peptide: PKFSEFWDLDPEV
Method in brief: as §1

ApoC3 peptide K60P = biological target: T16, ApoC3 peptide K60P (human, cyclic (thioether))
T16 peptide: DPFSEFWDLDPEV
Method in brief: as §1

ApoC3 peptide K60Q = biological target: T17, ApoC3 peptide K60Q (human, cyclic (thioether))
T17 peptide: DQFSEFWDLDPEV
Method in brief: as §1

ApoC3 peptide F64R = biological target: T18, ApoC3 peptide F64R (human, thioether (positions not given here); not fully specified (bridges); also: cyclic (thioether), positions not given here)
T18 peptide: DKFSERWDLDPEV
Method in brief: as §1

ApoC3 peptide W65R = biological target: T19, ApoC3 peptide W65R (human, cyclic (thioether))
T19 peptide: DKFSEFRDLDPEV
Method in brief: as §1

ApoC3 peptide D66T = biological target: T20, ApoC3 peptide D66T (human, not fully specified; cyclic (thioether))
T20 peptide: DKFSEFWTLDPEV
Method in brief: as §1

ApoC3 peptide L67T = biological target: T21, ApoC3 peptide L67T (human, thioether (positions not given here); not fully specified (bridges); also: thioether between a C-terminal Cys side chain and a modified N-terminus, the Cys is not in the chain)
T21 peptide: DKFSEFWDTDPEV
Method in brief: as §1

ApoC3 peptide D59V = biological target: T22, ApoC3 peptide D59V (human, thioether (positions not given here); not fully specified (C-terminus, bridges); also: cyclised via thioether between a C-terminal Cys and a modified N-terminus, the Cys and the N-terminal …)
T22 peptide: VKFSEFWDLDPEV
Method in brief: as §1

ApoC3 peptide D66V = biological target: T23, ApoC3 peptide D66V (human, not fully specified; cyclic (thioether))
T23 peptide: DKFSEFWVLDPEV
Method in brief: as §1

ApoC3 peptide D66Y = biological target: T24, ApoC3 peptide D66Y (human, cyclic (thioether))
T24 peptide: DKFSEFWYLDPEV
Method in brief: as §1

ApoC3 peptide S62A = biological target: T25, ApoC3 peptide S62A (human, not fully specified; cyclic (thioether))
T25 peptide: DKFAEFWDLDPEV
Method in brief: as §1

ApoC3 peptide F64A = biological target: T26, ApoC3 peptide F64A (human, cyclic (thioether))
T26 peptide: DKFSEAWDLDPEV
Method in brief: as §1

ApoC3 peptide L67A = biological target: T27, ApoC3 peptide L67A (human, not fully specified; cyclic (thioether))
T27 peptide: DKFSEFWDADPEV
Method in brief: as §1

ApoC3 peptide V71A = biological target: T28, ApoC3 peptide V71A (human, thioether (positions not given here); also: cyclic (thioether), ring places not given here)
T28 peptide: DKFSEFWDLDPEA
Method in brief: as §1

ApoC3 peptide D59C = biological target: T29, ApoC3 peptide D59C (human, thioether (positions not given here); not fully specified (C-terminus, bridges))
T29 peptide: CKFSEFWDLDPEV
Method in brief: as §1

ApoC3 peptide K60C = biological target: T30, ApoC3 peptide K60C (human, thioether (positions not given here); not fully specified (bridges); also: cyclic (thioether), positions not given here)
T30 peptide: DCFSEFWDLDPEV
Method in brief: as §1

% of binding to wild-type peptide (ApoC3 peptide W65C): 0.08%
% of binding to wild-type peptide (ApoC3 peptide D68C): 5.46%
% of binding to wild-type peptide (ApoC3 peptide E70C): 27.1%
% of binding to wild-type peptide (ApoC3 peptide W65D): 0%
% of binding to wild-type peptide (ApoC3 peptide F61E): 180%
% of binding to wild-type peptide (ApoC3 peptide D68F): 0%
% of binding to wild-type peptide (ApoC3 peptide F64H): 84.5%
% of binding to wild-type peptide (ApoC3 peptide P69H): 10.7%
% of binding to wild-type peptide (ApoC3 peptide P69I): 48%
% of binding to wild-type peptide (ApoC3 peptide K60L): 107%
% of binding to wild-type peptide (ApoC3 peptide F61L): 63.4%
% of binding to wild-type peptide (ApoC3 peptide L67M): 12.5%
% of binding to wild-type peptide (ApoC3 peptide P69M): 29.3%
% of binding to wild-type peptide (ApoC3 peptide E70N): 49.6%
% of binding to wild-type peptide (ApoC3 peptide D59P): 69.3%
% of binding to wild-type peptide (ApoC3 peptide K60P): 205%
% of binding to wild-type peptide (ApoC3 peptide K60Q): 178%
% of binding to wild-type peptide (ApoC3 peptide F64R): 73.7%
% of binding to wild-type peptide (ApoC3 peptide W65R): 0.02%
% of binding to wild-type peptide (ApoC3 peptide D66T): 0%
% of binding to wild-type peptide (ApoC3 peptide L67T): 168%
% of binding to wild-type peptide (ApoC3 peptide D59V): 43.3%
% of binding to wild-type peptide (ApoC3 peptide D66V): 0%
% of binding to wild-type peptide (ApoC3 peptide D66Y): 0%
% of binding to wild-type peptide (ApoC3 peptide S62A): 29.6%
% of binding to wild-type peptide (ApoC3 peptide F64A): 220%
% of binding to wild-type peptide (ApoC3 peptide L67A): 21%
% of binding to wild-type peptide (ApoC3 peptide V71A): 66.3%
% of binding to wild-type peptide (ApoC3 peptide D59C): 66.2%
% of binding to wild-type peptide (ApoC3 peptide K60C): 67.2%
B1: Llama antibody 5E5 (antibody, V domains shown)
VH: QLQLVESGGGLVQPGGSLRLSCAASGFTFGTYSMRWVRQVPRKALEWVSSISTDGGGTAYRDSVKGRFTISRDNAKNTLYLQMNNLKPEDTAIYYCVIAGYSDWGQGTQVTVSS
VL: ATMLTQSPGSLSVVPGESASISCKTSQGLVHSDGKTYFYWFLQKPGQSPQQLIYQVSNRASGVPDRFTGSGSGTDFTLKISGVKAEDAGVYYCAQGTYYPHTFGSGTRLEIK
notes: detected with goat anti-human IgG (Fc); also called mAb 5E5
